Experimental data published in US20040132641A1 (University of Pennsylvania, published 2004).
Positions of bridges follow the written chain, without caps; N, C: chain ends. No end group written: not given here.

Columns and labels:
[1] = target: T1, human Fas extra cellular domain-IgGFc fusion protein (Fas-Fc) (human, UniProt P25445 26-173); assay: SPR (BIAcore 3000), Fas-Fc immobilised, Kp7-6 in flow
T1 construct: extracellular domain; Bought from Kamiya Biomedical; also called soluble Fas receptor; not shown: IgG Fc
T1 sequence (looked up): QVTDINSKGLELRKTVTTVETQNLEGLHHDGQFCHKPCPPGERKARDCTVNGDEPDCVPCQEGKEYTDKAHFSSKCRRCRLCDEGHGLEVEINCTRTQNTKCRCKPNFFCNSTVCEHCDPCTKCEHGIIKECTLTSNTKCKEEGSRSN
Description: (§1) To assess the specificity of Kp7-6 binding interaction, Fas, FasL and TNFα were immobilized on a sensor chip. Kp7-6 bound to FasL but not to TNFα, which indicates Kp7-6 bound to FasL specifically (FIG. 3B). Kp7-6 also bound to Fas (FIG. 3B). […] (Naismith, J. H. et al. Structure 4, 1251-1262 (1996)). […] No significant binding to TNF-R was detected.
(§2) Biosensor analysis. All experiments were carried out on a BIAcore 3000 instrument (Biacore A G, Uppsala, Sweden) at 25° C. using PBS, pH 7.4, containing 0.005% surfactant P20 (Biacore A G) as the running buffer. FasL-Flag, Fas-Fc or TNFRI-Fc was immobilized on research-grade CM5 sensor chips (Biacore AG) using standard N-ethyl-N-dimethylaminopropyl carbodiimid/N-hydroxysuccinimide coupling. Immobilization was performed in 10 mM sodium acetate buffer at pH 4.5 for FasL-Flag and Fas-Fc, and at pH 4.0 for TNFRI-Fc. After coupling, excess N-hydroxysuccinimide groups were inactivated with ethanolamine. For binding studies, about 1500 resonance units (RU) of FasL-Flag, Fas-Fc and TNFRI-Fc were coupled to the chips. Surface plasmon resonance (SPR) measurements were carried out at a flow rate of 20 ml min⁻¹. Data were analyzed with the BIA evaluation 3.0 software (Biacore AG). The sensograms give values for the relative response in resonance units (RU) after background subtraction versus time in seconds. […]

[2] = target: T2, Human recombinant TNF-receptor (I) extracellular domain-IgGFc fusion protein (TNFRI-Fc) (human, UniProt P19438 30-211); assay: SPR (BIAcore), target immobilised on sensor chip
T2 construct: extracellular domain; not shown: IgG Fc
T2 sequence (looked up): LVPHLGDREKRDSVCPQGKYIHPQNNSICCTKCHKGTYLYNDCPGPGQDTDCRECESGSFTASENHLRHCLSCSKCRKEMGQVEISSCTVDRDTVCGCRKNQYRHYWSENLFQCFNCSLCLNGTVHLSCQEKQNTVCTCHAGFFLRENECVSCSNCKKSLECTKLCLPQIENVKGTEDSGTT
Description: as §1, §2

[3] = target: T3, Flag-tagged soluble human Fas ligand (FasL-Flag) (human, UniProt P48023 103-281, limits assumed); assay: SPR (BIAcore), FasL-Flag immobilised, Kp7-6 in solution
T3 construct: Bought from Kamiya Biomedical; also called soluble FasL-Flag fusion protein; not shown: Flag tag
T3 sequence (looked up): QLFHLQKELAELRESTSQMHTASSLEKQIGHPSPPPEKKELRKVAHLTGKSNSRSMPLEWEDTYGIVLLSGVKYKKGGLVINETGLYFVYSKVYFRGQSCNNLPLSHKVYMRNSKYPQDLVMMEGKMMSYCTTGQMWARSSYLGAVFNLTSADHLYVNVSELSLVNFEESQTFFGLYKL
Description: (§3) The kinetics of binding of Kp7-6, which mediated the best inhibitory activity to FasL, was performed using surface plasmon resonance (BIAcore™) analysis. FasL-Flag was immobilized onto a sensor chip and various solutions containing different concentrations of Kp7-6 were passed over the surface. […] The koff value is considered as an important indicator in the development of therapeutics with biological activity (Benveniste, M. et al. Br J Pharmacol 104, 207-221 (1991); Yiallouros, I. et al. Biochem J 331, 375-379 (1998)), and generally correlates with potent biological effects. (Moosmayer, D. et al. J Interferon Cytokine Res 16, 471-477 (1996)). […] (Berezov, A. et al. J Med Chem 44, 2565-2574 (2001)).
as §2, with “For binding studies, about 1500 resonance units (RU) of FasL-Flag, Fas-Fc and TNFRI-Fc were coupled to the chips. Surface plasmon resonance (SPR) measurements were carried out at a flow rate of 20 ml min⁻¹.” left out, “AG).” for “AG). The sensograms give values for the relative response in resonance units (RU) after background subtraction versus time in seconds.”

[4] = target: T3, Flag-tagged soluble human Fas ligand …; assay: SPR (BIAcore), FasL-Flag immobilised, Kp7-6 in solution; ratio of rate constants
Description: as §3
as §2, with “For binding studies, about 1500 resonance units (RU) of FasL-Flag, Fas-Fc and TNFRI-Fc were coupled to the chips. Surface plasmon resonance (SPR) measurements were carried out at a flow rate of 20 ml min⁻¹.” left out, “AG).” for “AG). The sensograms give values for the relative response in resonance units (RU) after background subtraction versus time in seconds.”

[5] = target: T3, Flag-tagged soluble human Fas ligand …; assay: solid phase ligand binding assay; peptide preincubated with FasL-Flag, inhibition of binding to immobilised Fas-Fc
Description: To compare the inhibitory activities of the Kp7 peptide series, dose-response studies were performed. The best activity was found with Kp7-6, which inhibited 50% of the FasL-Flag molecule binding to immobilized Fas-Fc at 150 μM (FIG. 2B).
Solid phase ligand binding assay. Fas-Fc fusion protein (250 ng/ml) diluted in PBS was immobilized onto 96 well ELISA plate (Costar, High Wycombe, UK) by incubating overnight at 4° C. After blocking with PBS containing 1% skim milk overnight at 4° C. and subsequent washing with PBS containing 0.05% Tween 20 (PBS-Tw), Flag-tagged soluble FasL (100 ng/ml)/peptide solution preincubated in PBS containing 1% skim milk for 1 h at 37° C. was added onto the Fas-Fc coated wells. After 2 h incubation at room temperature, the plate was washed with PBS-Tw, and anti-FLAG(M2)-HRP antibody 1:2500 in PBS containing 1% skim milk was added. After 1 h incubation at room temperature, the plate was washed with PBS-Tw, and the enzyme reaction was started by adding the substrate solution (0.1M sodium acetate buffer (pH 5.0) containing 100 μg/ml of TMBZ and 0.005% (v/v) H₂O₂) and stopped with 2N H₂SO₄. The absorbance at 450 nm was measured with an ELISA reader.

Human recombinant TNFα = target: T4, Human recombinant TNFα (human, UniProt P01375 77-233); assay: SPR (BIAcore 3000), TNFα immobilised, Kp7-6 in flow; peptide concentration not given
T4 construct: Bought from Roche Diagnostics
T4 sequence (P01375 77-233 limits assumed): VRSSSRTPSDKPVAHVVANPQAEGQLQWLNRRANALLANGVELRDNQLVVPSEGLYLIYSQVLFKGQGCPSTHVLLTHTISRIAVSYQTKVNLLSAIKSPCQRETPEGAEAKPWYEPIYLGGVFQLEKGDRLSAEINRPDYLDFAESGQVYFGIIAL

binding result [1]: binds
binding result [2]: no binding
koff [3]: 0.000765 s⁻¹
Kd [4]: 11.2 µM
IC50 [5]: 150 µM
binding result (Human recombinant TNFα): no binding
B1: Kp7-6 (peptide)
peptide: YCDEHFCY
modifications: disulfide 2-7
notes: Synthetic exocyclic peptide derived from the Kp7 loop of human Fas (91 CDEGHGL 97); also called Fas mimetic Kp7-6; exocyclic mimetic Kp7-6
